The record followed here is article PMC3881179.

Where two headings read alike, the source gives them in different places.

Data set [1] addresses T1, STING C-terminal region (hSTING-C) (human, UniProt Q86WV6 152-379). Kind of data set: fluorescence anisotropy.
Data set [2] has as its target T2, STING C-terminal region (UniProt Q86WV6 181-379). Kind of data set: SPR.
For data set [3], the target named is T2, STING C-terminal region. Kind of data set: pull-down.
For data set [4], the target named is T1, STING C-terminal region (hSTING-C). Briefly: fluorescence anisotropy. This is another data set of the same source.

T2 sequence (Q86WV6 181-379): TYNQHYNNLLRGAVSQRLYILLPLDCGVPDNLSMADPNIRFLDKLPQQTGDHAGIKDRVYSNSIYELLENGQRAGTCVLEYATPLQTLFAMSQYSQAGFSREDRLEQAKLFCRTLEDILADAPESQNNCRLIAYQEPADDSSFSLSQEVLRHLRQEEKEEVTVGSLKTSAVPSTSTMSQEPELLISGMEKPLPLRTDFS
T1 sequence (Q86WV6 152-379): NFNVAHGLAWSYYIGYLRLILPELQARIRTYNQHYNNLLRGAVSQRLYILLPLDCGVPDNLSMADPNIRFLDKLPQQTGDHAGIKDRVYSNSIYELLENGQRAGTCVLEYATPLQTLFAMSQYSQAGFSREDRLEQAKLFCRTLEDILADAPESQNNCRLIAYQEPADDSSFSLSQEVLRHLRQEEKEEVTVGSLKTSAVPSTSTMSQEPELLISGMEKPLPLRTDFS

B1: dsDNA 18-mer (dsDNA)
DNA 1: TACAGATCTACTAGTGAT
DNA 2: ATCACTAGTAGATCTGTA
Take B1: in data set [1], the dissociation constant (Kd) – broadly, a measure of binding affinity in units of concentration – is 337 ± 26 µM.

B2: dsDNA90 (dsDNA)
DNA 1: TACAGATCTACTAGTGATCTATGACTGATCTGTACATGATCTACATACAGATCTACTAGTGATCTATGACTGATCTGTACATGATCTACA
DNA 2: TGTAGATCATGTACAGATCAGTCATAGATCACTAGTAGATCTGTATGTAGATCATGTACAGATCAGTCATAGATCACTAGTAGATCTGTA
B2 had a Kd with STING C-terminal region [2] of 13.7 µM.

B3: ssDNA90 (ssDNA)
DNA: TACAGATCTACTAGTGATCTATGACTGATCTGTACATGATCTACATACAGATCTACTAGTGATCTATGACTGATCTGTACATGATCTACA
Regarding B3, in the data set with STING C-terminal region [3], the binding result is on record as “binds”.

B4: dsDNA 30-mer (dsDNA)
DNA 1: TACAGATCTACTAGTGATCTATGACTGATC
DNA 2: GATCAGTCATAGATCACTAGTAGATCTGTA
B4 gave a dissociation constant Kd in data set [4] of 247 ± 38 µM.
